Results reported in US20220017615A1 (SHANGHAI PHARMAEXPLORER, published 2022).
Positions count from the first letter of the chain named.

B1: 51E2F11 (antibody, V domains shown)
VH: EVQLQQSGAELVKPGASVKLSCTASGFNIKDHYIHWMNQRTEQGLEWIGRIDPDDGETRYAPKFRGKATLTADTSSNTAYLQFSSLTSEDTAVYHCTRATTITRDWYFDVWGTGTTVTVSS
VL: DIVMTQSQKFMSTSVGDRVSITCKASQNVRTSVAWYQQKPGQSPKALIYLASNRHTGIPDRFTGSGSGTDFTLTIRNVQSEDLADYFCLQHWDYPLTFGAGTKLELK
notes: Murine hybridoma antibody purified on protein G
B2: 25E3B5 (antibody, V domains shown)
VH: QVQLQQPGTALVRPGSSVKLSCKASGYTFTSYWMHWVRQRPIKGLEWIGNIDPSDSETHYNQRFKDKVTLTVDKSSNTAYMQLSSLTSEDSAVYYCARWKYHGIGAMDYWGQGTSVTVSS
VL: DVQITQSPSYLAASPGETVTISCRTNRNISKFLAWYQEKPGKTNKLLIYSGSTLHSGIPSRFSGSGSGTDFTLTISRLEPEDFAMYYCQQHNEYPWSFGGGTKLEIK
notes: as for B1
B3: 20H4G5 (antibody, V domains shown)
VH: QVQLQQPGAELVRPGSSVRLSCVTSGYTFTSHWMHWVKQGPIKGLEWIGNIDPSDSETHYNQKFKDKATLTVDKSSSTAYMQLSRLTSDDSAVYYCARWRHLGIGAMDYWGQGTSVIVSS
VL: B2 VL with V19I, S22N, T25A, N26S, R27K, E38A, T43S, K45N, H55Q, S97T
notes: as for B1

Each binder was assayed against T1, His-tagged CD47 recombinant protein, CD47-His (human, UniProt Q08722 19-141, limits assumed) (assay: ELISA on coated CD47-His; Ab 13.333 nM).
T1 construct: it is not restated for CD47-His; also called human CD47-His protein; antigen CD47-His; not shown: His tag

Row | OD450 nm | Binder
1 | 2.97 | B1
2 | 2.96 | B2
3 | 2.94 | B3

What follows are binders tested against T2, cynomolgus CD47, on CHOK1-cCD47 stable cell line (cynomolgus) (assay: FACS CHOK1-cCD47; Ab 0.32 nM).
T2 construct: whole, on cells; check before use; also called CHOK1/cynoCD47; monkey-derived CD47
Procedure: (§1) The CHOK1-hCD47 stable cell lines and CHOK1-cCD47 stable cell lines were expanded to 90% confluence in a T-75 cell culture flask, the medium was exhausted, washed twice with HBSS buffer (Hanks balanced salt solution) (purchased from Invitrogen), and then treated and collected with enzyme-free cell dissociation solution (Versene solution: purchased from Life technology). The cells were washed twice with HBSS buffer. After counted, the cells were diluted with HBSS to 2×10⁶ cells per ml, added with 1% goat serum blocking solution, wherein the percentage was the mass percantage, incubated on ice for 30 minutes, and then washed twice with HBSS by centrifugation. […] The plate was washed 3 times with FACS buffer by centrifugation, added with 100 μl fixative solution [4% (v/v) Paraformaldehyde] per well to suspend the cells. 10 minutes later, it was washed twice with FACS buffer by centrifugation. The cells were suspended with 100 microliters of FACS buffer, FACS (FACS Calibur, purchased from BD) was used for detection and the results were analyzed.

Row | mean fluorescence intensity | Binder
4 | 2880 | B1
5 | 4550 | B2
6 | 3310 | B3

What follows are binders tested against T2, cynomolgus CD47, on CHOK1-cCD47 stable … (assay: FACS CHOK1-cCD47; Ab 40 nM).
Procedure: as §1

Row | mean fluorescence intensity | Binder
7 | 13300 | B1
8 | 9760 | B2
9 | 13400 | B3

Each binder was assayed against T3, biotin-labeled CD47 extracellular domain protein (CD47-ECD) (UniProt Q08722 19-139, limits assumed, biotin-labeled (sites not given)) (assay: blocking ELISA, biotin-CD47-ECD on coated SIRPα-hFc; Ab 200 nM).
T3 construct: extracellular domain; also called CD47 protein

Row | OD450 nm of CD47 bound to SIRPα | Binder
10 | 0.07 | B1
11 | 0.06 | B2
12 | 0.07 | B3

What follows are binders tested against T3, biotin-labeled CD47 extracellular … (assay: blocking ELISA, biotin-CD47-ECD on coated SIRPα-hFc; Ab 0.0128 nM).
Procedure: (§2) The plate was sealed with plastic film and incubated at 4° C. overnight. The plate was washed twice with plate washing solution [PBS+0.01% (v/v) Tween20] on the next day, and blocking solution [PBS+0.01% (v/v) Tween20 +1% (w/w) BSA] was added to block it at room temperature for 2 hours. […] After incubation at 37° C. for 2 hours, the plate was washed three times with the plate washing solution [PBS+0.01% (v/v) Tween 20]. HRP (horseradish peroxidase) labeled avidin diluent (purchased from Sigma) was added as 100 microliters per well, and after the plate was incubated for 2 hours at 37° C., it was washed 3 times with washing solution [PBS+0.01% (v/v) Tween 20]. 100 μl of TMB substrate was added to each well. After incubated at room temperature for 30 minutes, the plate was added with 100 μl of stop solution (1.0N HCl) to each well.

Row | OD450 nm of CD47 bound to SIRPα | Binder
13 | 2.94 | B1
14 | 2.79 | B2
15 | 2.81 | B3

What follows are binders tested against T4, human CD47, full length, on transfected cells (human, UniProt Q08722 19-323) (assay: FACS CHOK1-hCD47; Ab 1.6 nM).
T4 construct: whole, on cells; also called CHOK1-hCD47
Procedure: as §1

Row | mean fluorescence intensity | Binder
16 | 6460 | B1
17 | 4430 | B2
18 | 6160 | B3

The binders below were run against T2, cynomolgus CD47, on CHOK1-cCD47 stable … (assay: FACS CHOK1-cCD47; Ab 0.064 nM).
Procedure: as §1

Row | mean fluorescence intensity | Binder
19 | 288 | B1
20 | 1450 | B2
21 | 998 | B3

What follows are binders tested against T1, His-tagged CD47 recombinant protein, … (assay: ELISA on coated CD47-His; Ab 0.021 nM).
Procedure: (§3) The plate was sealed with plastic film and incubated at 4° C. overnight. The plate was washed twice with plate washing solution [PBS+0.01% (v/v) Tween20] the next day, and blocking solution [PBS+0.01% (v/v) Tween20 +1% (w/w) BSA] was added to block it at room temperature for 2 hours. […] After incubation at 37° C. for 2 hours, the plates were washed three times with plate washing solution [PBS+0.01% (v/v) Tween 20]. HRP (horseradish peroxidase) labeled secondary antibody (purchased from Sigma) was added, incubated at 37° C. for 2 hours, and then washed three times with plate washing solution [PBS+0.01% (v/v) Tween 20]. 1000 of TMB substrate was added to each well. After incubated at room temperature for 30 minutes, the plate was added with 100 μl of stop solution (1.0N HCl) to each well.

Row | OD450 nm | Binder
22 | 0.53 | B1
23 | 0.46 | B2
24 | 1.15 | B3

Each binder was assayed against T4, human CD47, full length, on transfected … (assay: FACS CHOK1-hCD47; Ab 0.32 nM).
Procedure: as §1

Row | mean fluorescence intensity | Binder
25 | 2000 | B1
26 | 1560 | B2
27 | 2980 | B3

The binders below were run against T3, biotin-labeled CD47 extracellular … (assay: blocking ELISA, biotin-CD47-ECD on coated SIRPα-hFc; Ab 0 nM).
Procedure: as §2

Row | OD450 nm of CD47 bound to SIRPα | Binder
28 | 2.95 | B1
29 | 2.91 | B2
30 | 2.9 | B3

The binders below were run against T3, biotin-labeled CD47 extracellular … (assay: blocking ELISA, biotin-CD47-ECD on coated SIRPα-hFc; Ab 0.064 nM).
Procedure: as §2

Row | OD450 nm of CD47 bound to SIRPα | Binder
31 | 2.77 | B1
32 | 2.5 | B2
33 | 2.29 | B3

These binders were tested against T3, biotin-labeled CD47 extracellular … (assay: blocking ELISA, biotin-CD47-ECD on coated SIRPα-hFc; Ab 8 nM).
Procedure: as §2

Row | OD450 nm of CD47 bound to SIRPα | Binder
34 | 0.1 | B1
35 | 0.07 | B2
36 | 0.08 | B3

The binders below were run against T4, human CD47, full length, on transfected … (assay: FACS CHOK1-hCD47; Ab 8 nM).
Procedure: as §1

Row | mean fluorescence intensity | Binder
37 | 12700 | B1
38 | 7020 | B2
39 | 8470 | B3

These binders were tested against T1, His-tagged CD47 recombinant protein, … (assay: ELISA on coated CD47-His; Ab 0.004 nM).
Procedure: as §3

Row | OD450 nm | Binder
40 | 0.16 | B1
41 | 0.14 | B2
42 | 0.31 | B3

The binders below were run against T2, cynomolgus CD47, on CHOK1-cCD47 stable … (assay: FACS CHOK1-cCD47; Ab 0 nM (background)).
Procedure: as §1

Row | mean fluorescence intensity | Binder
43 | 72.4 | B1
44 | 83.5 | B2
45 | 81.2 | B3

Each binder was assayed against T1, His-tagged CD47 recombinant protein, … (assay: ELISA on coated CD47-His; Ab 2.667 nM).
Procedure: as §3

Row | OD450 nm | Binder
46 | 3 | B1
47 | 3.02 | B2
48 | 3.01 | B3

What follows are binders tested against T1, His-tagged CD47 recombinant protein, … (assay: ELISA on coated CD47-His; Ab 0.107 nM).
Procedure: as §3

Row | OD450 nm | Binder
49 | 1.83 | B1
50 | 1.68 | B2
51 | 2.61 | B3

The binders below were run against T3, biotin-labeled CD47 extracellular … (assay: blocking ELISA, biotin-CD47-ECD on coated SIRPα-hFc; Ab 1.6 nM).
Procedure: as §2

Row | OD450 nm of CD47 bound to SIRPα | Binder
52 | 0.32 | B1
53 | 0.18 | B2
54 | 0.16 | B3

These binders were tested against T2, cynomolgus CD47, on CHOK1-cCD47 stable … (assay: FACS CHOK1-cCD47; Ab 0.0128 nM).
Procedure: as §1

Row | mean fluorescence intensity | Binder
55 | 245 | B1
56 | 422 | B2
57 | 343 | B3

What follows are binders tested against T4, human CD47, full length, on transfected … (assay: FACS CHOK1-hCD47; Ab 0.064 nM).
Procedure: as §1

Row | mean fluorescence intensity | Binder
58 | 541 | B1
59 | 386 | B2
60 | 759 | B3

Each binder was assayed against T2, cynomolgus CD47, on CHOK1-cCD47 stable … (assay: FACS CHOK1-cCD47; Ab 200 nM).
Procedure: as §1

Row | mean fluorescence intensity | Binder
61 | 9460 | B1
62 | 7040 | B2
63 | 16500 | B3

Each binder was assayed against T1, His-tagged CD47 recombinant protein, … (assay: ELISA on coated CD47-His; Ab 0.533 nM).
Procedure: as §3

Row | OD450 nm | Binder
64 | 2.95 | B1
65 | 2.91 | B2
66 | 3.02 | B3

These binders were tested against T4, human CD47, full length, on transfected … (assay: FACS CHOK1-hCD47; Ab 40 nM).
Procedure: as §1

Row | mean fluorescence intensity | Binder
67 | 15900 | B1
68 | 9790 | B2
69 | 9520 | B3

These binders were tested against T3, biotin-labeled CD47 extracellular … (assay: blocking ELISA, biotin-CD47-ECD on coated SIRPα-hFc; Ab 0.32 nM).
Procedure: as §2

Row | OD450 nm of CD47 bound to SIRPα | Binder
70 | 1.57 | B1
71 | 1.06 | B2
72 | 0.68 | B3

These binders were tested against T1, His-tagged CD47 recombinant protein, … (assay: ELISA on coated CD47-His; Ab 66.667 nM).
Procedure: as §3

Row | OD450 nm | Binder
73 | 2.95 | B1
74 | 2.89 | B2
75 | 2.9 | B3

These binders were tested against T2, cynomolgus CD47, on CHOK1-cCD47 stable … (assay: FACS CHOK1-cCD47; Ab 8 nM).
Procedure: as §1

Row | mean fluorescence intensity | Binder
76 | 10600 | B1
77 | 13200 | B2
78 | 16400 | B3

The binders below were run against T4, human CD47, full length, on transfected … (assay: FACS CHOK1-hCD47; Ab 200 nM).
Procedure: as §1

Row | mean fluorescence intensity | Binder
79 | 14600 | B1
80 | 9420 | B2
81 | 6550 | B3

The binders below were run against T2, cynomolgus CD47, on CHOK1-cCD47 stable … (assay: FACS CHOK1-cCD47; Ab 1.6 nM).
Procedure: as §1

Row | mean fluorescence intensity | Binder
82 | 7190 | B1
83 | 7400 | B2
84 | 9450 | B3

These binders were tested against T1, His-tagged CD47 recombinant protein, … (assay: ELISA on coated CD47-His; Ab 0 nM (background)).
Procedure: as §3

Row | OD450 nm | Binder
85 | 0.05 | B1
86 | 0.05 | B2
87 | 0.05 | B3

These binders were tested against T3, biotin-labeled CD47 extracellular … (assay: blocking ELISA, biotin-CD47-ECD on coated SIRPα-hFc; Ab 40 nM).
Procedure: as §2

Row | OD450 nm of CD47 bound to SIRPα | Binder
88 | 0.08 | B1
89 | 0.06 | B2
90 | 0.07 | B3

Each binder was assayed against T4, human CD47, full length, on transfected … (assay: FACS CHOK1-hCD47; Ab 0 nM (background)).
Procedure: as §1

Row | mean fluorescence intensity | Binder
91 | 22.6 | B1
92 | 22.9 | B2
93 | 23.1 | B3

These binders were tested against T4, human CD47, full length, on transfected … (assay: FACS CHOK1-hCD47; Ab 0.0128 nM).
Procedure: as §1

Row | mean fluorescence intensity | Binder
94 | 174 | B1
95 | 120 | B2
96 | 233 | B3
